For one assay, the target named is Human IgM (Homo sapiens, UniProt P01871). Description: IgM binding assay (human IgM).
Another assay concerns the target T1, mIgM (Mus musculus, UniProt P01872).
T1 sequence (P01872 1-454): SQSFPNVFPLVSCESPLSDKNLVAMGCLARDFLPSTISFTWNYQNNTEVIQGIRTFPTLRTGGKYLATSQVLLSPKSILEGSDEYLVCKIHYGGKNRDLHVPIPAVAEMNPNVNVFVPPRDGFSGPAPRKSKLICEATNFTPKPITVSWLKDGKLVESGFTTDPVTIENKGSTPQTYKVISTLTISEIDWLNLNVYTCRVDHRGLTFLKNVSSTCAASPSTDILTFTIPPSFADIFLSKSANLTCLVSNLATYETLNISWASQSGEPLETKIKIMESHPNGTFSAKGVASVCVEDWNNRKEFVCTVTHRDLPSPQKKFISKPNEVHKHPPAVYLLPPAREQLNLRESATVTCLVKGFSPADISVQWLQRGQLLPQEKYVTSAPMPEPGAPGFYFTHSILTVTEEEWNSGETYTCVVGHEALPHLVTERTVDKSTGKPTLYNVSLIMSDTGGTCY
Description: IgM binding ELISA (mouse IgM). Conditions: mIgM-coated ELISA; half-log dilution 10 μg/ml-0.01 μg/ml. As to the method: Reactivity of the DVD-Ig proteins with mIgM was determined by enzyme-linked immunosorbent assay (ELISA). Briefly, each well of an Ultra Cruz 96 well microtiter plate (Santa Cruz Biotechnology, Dallas, Tex.) was coated with mIgM at a concentration of 1 μg/ml in 100 μl of PBS. The plate was covered in plastic wrap and incubated overnight at 4° C. Each well of the plate was then washed 3× with 300 μl of PBST. After the final wash, 200 μl of blocking buffer (1% BSA in PBS) was added to each well and the plate incubated at RT for 2 hours. The plate was then washed as above. Rows B-H of the microtiter plate were filled with 100 μl of dilution buffer (1% BSA in PBST). The DVD-Ig proteins were then diluted to […] in dilution buffer and 147 μl of a DVD-Ig protein was added in duplicate to row A of a 96 well plate. For a ½ log dilution, 47 μl was transferred from row A to row B. The pipette tips were replaced with clean tips and 47 μl from row B was transferred to row C. The serial transfers were repeated as above until row G. To assess the binding of the secondary detection reagent to the coated IgM, the final transfer 47 μl was only transferred from G1-G10 to H1-H10 and wells H11 and H12 were left containing 100 μl of dilution buffer. To maintain a 100 μl assay volume, 47 μl was removed from wells H1-H10 and G11-G12 and discarded. After the serial dilution was completed, the plate was incubated for 1-2 hours at RT. The plate was washed as above and then 100 μl of horseradish peroxidase conjugated goat α-hIgG Fc specific, diluted 1:3,000 in dilution buffer, was added to each well. The plate was incubated for 1 hour at RT and then washed 4× as above. The plate was developed by adding 100 μl of 3′,3′,5′,5′-Tetramethylbenzidine (TMB) substrate solution to each well and incubating the plate in the dark for 10-15 minutes. The enzymatic reaction was stopped by adding 100 μl of 1M H2SO4 to each well. The plate was read at 450 nm on an EnVision 2102 multilabel reader (Perkin Elmer, Waltham, Mass.).
DVD-Ig proteins DVD3751-DVD3760 were characterized by IgM binding assay at half-log dilution starting at 10 μg/ml-0.01 μg/ml according to the method of Example 2.5.
IgM binding ELISA: Titrations of the DVD-Ig™ proteins (10 μg/ml to 0.01 μg/ml) were added to ELISA plates coated with murine IgM. Bound antibody was detected with biotinylated anti-human IgG and streptavidin-HRP. EC50 were calculated from the titration curve using Prism6.
On the technique in general: ELISA stands for enzyme-linked immunosorbent assay.

Another assay deals with DNA. Kind of assay: Antinuclear antibody (ANA) test. The format is binding. Conditions: for level of ANA staining: 10 μg/ml, among DVD3751-DVD3760; for ANA score / ANA score, relative result: ANA staining at 10 μg/ml. On the set-up: key to ANA score, relative result: (X)-(XXX) indicates relative results; (XX): (X)-(XXX) indicates relative results; (X)-(XXX) indicates relative results. As to the method:
The cloned BWR4 and PA4 antibodies as well as the DVD-Ig proteins were tested for ANA reactivity using the ANA test kit. Briefly, the DVD-Ig proteins and antibodies were diluted to […] in blocking buffer (1% BSA in PBS). The DVD-Ig proteins and antibodies were added to separate wells of an ANA slide at 50 μl/well and incubated in a moist chamber for 2 hours at room temperature (RT). The wells were then washed 3× with PBS. To detect bound antibodies, Alexa Fluor 488 conjugated goat α-human IgG (α-hIgG) was then added at a dilution of 1:1,000 and the slide incubated in a moist chamber for 1 hour. Unbound detecting antibody was removed by immersing the slide in a jar containing PBS and incubating for 10 minutes at RT with gentle rocking. The prior step was repeated 2× and 10 μl of Prolong® Gold Antifade was added to each well and a 24 mm×60 mm #1 cover glass seated on top. The covered slide was incubated overnight at RT and then sealed by applying clear nail polish to the edges. Binding of the DVD-Ig proteins and antibodies to the slides was assessed by fluorescence microscopy.
DVD-Ig proteins DVD3751-DVD3760 were characterized by antinuclear antibody (ANA) staining at 10 μg/ml according to the method of Example 2.4.
ANA: HEp-2 human tissue culture substrate slides were incubated with 5 μg/ml of the anti-DNA-IgG2a or the DVD-Ig™ binding protein for 2 hours at RT. The slides were washed and bound antibodies were detected with Alexa-488 goat anti-human antibody or DyLight 488 goat anti-mouse antibody.

The test system of another assay is AM14 WT B cells. Kind of assay: [3H]thymidine incorporation, BCR/TLR9 stimulation of AM14 WT B cells. The format is cell-based, mouse. On the set-up: key to 3H incorporation AM14 WT, relative result: (X)-(XXX) indicates relative results; (XX): (X)-(XXX) indicates relative results; (X)-(XXX) indicates relative results; level of 3H incorporation / 3H incorporation AM14 WT: dose or concentration left out as unconfirmed. Conditions: for 3H incorporation AM14 WT: 24 hours, then 6 hours pulse. The source says:
(§1) The AM14 B cell receptor (BCR) transgenic mouse has been described previously (Sweet et al. (2010) Autoimmun 43(8): 607-18). Briefly, AM14 is a BCR comprising the AM14 heavy chain and the Vk8 light chain that recognizes murine IgG2a (mIgG2a) of the “a” allotype. Between 95-98% of B cells in a mouse positive for the AM14 heavy chain and Vk8 light chain express the AM14 BCR. To generate AM14 B cells that are deficient in TLR9, TLR7 or FcγRIIB, the AM14 and Vk8 genes were bred to the appropriate knock out mice.
(§2) Primary murine B cells were purified by positive selection using BD Imag™ CD45R/B220 magnetic particles (BD Biosciences, San Jose, Calif.). Briefly, B cells were cultured in RPMI containing, pencillin-streptomycin, β-mercaptoethanol, and 5% heat-inactivated fetal calf serum (FCS) in 96 well flat bottom plates at a density of 4×10^5 cells/well. For stimulation through the BCR and TLR9, B cells were treated with a titration of 0.3 μg/ml-0.03 μg/ml of PA4 or 5 μg/ml to 0.15 μg/ml of a DVD-Ig protein (DVD3751, DVD3752, DVD3754, DVD3755, DVD3759 and DVD3760), unless otherwise noted. Cells were also treated with 1 μg/ml 1826, an experimental ligand for TLR9, as a control. After 24 hours, the cells were pulsed for 6 hours with [3H]thymidine (Perkin Elmer, Waltham Mass.). Incorporation of [3H]thymidine was quantified via a liquid scintillation beta counter (Trilux 1450 MicroBeta, PerkinElmer) according to standard methods.
(§3) DVD-Ig proteins DVD3751-DVD3760 were characterized by ^3H incorporation at […] according to the method of Example 2.6.
Background: Incorporation of labelled thymidine or its analogues reports DNA synthesis.

Another assay deals with AM14 TLR9−/− B cells. Description: [3H]thymidine incorporation, BCR/TLR9 stimulation of AM14 TLR9-/- B cells. Conditions: at 5 mg/ml; 24 hours, then 6 hours pulse. The format is cell-based, mouse.
Text: as §1, §2, §3

Chain of Human IgM (P01871 1-433 limits assumed): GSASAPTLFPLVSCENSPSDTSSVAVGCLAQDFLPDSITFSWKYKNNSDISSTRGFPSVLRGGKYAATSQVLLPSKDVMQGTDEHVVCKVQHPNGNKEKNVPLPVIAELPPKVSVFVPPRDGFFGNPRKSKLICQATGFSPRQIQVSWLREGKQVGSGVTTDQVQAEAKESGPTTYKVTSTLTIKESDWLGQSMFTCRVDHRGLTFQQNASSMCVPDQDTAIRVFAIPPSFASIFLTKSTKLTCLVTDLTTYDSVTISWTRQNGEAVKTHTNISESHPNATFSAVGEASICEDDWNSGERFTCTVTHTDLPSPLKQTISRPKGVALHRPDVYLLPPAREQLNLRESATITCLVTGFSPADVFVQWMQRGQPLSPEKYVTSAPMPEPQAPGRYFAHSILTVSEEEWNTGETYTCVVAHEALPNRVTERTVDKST
Chain of Human IgM (P01591 23-159 partner): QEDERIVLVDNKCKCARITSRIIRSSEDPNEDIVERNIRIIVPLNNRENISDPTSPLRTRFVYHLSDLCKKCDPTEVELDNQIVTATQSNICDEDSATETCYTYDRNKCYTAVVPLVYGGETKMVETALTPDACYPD

B1: DVD3766: DVD-Ig: VD1 hIgM (HB-57.3), GS linker, VD2 DNA (PA4); heavy SEQ ID NO 76, light 77 (antibody)
heavy: QVQLQQPGAEFVKPGAPVKLSCKASGYPFTTYWVNWMKQRPGRGLEWIGRIDPYDSETLYNQKFKDKATLTVDKSSSTAYIQLSSLTSEDSAVYYCARETYDYPFAYWGQGTLVTVSSGGGGSGGGGSEVQLVESGGGLVKPGGSLKLSCVASGFTFSTYAMSWVRQTPTKRLEWVATISRGGVSTYYPDTVKGRFTISRDNAKNTLYLQMSSLRSEDTAMYYCARPPTIVTTWFAYWGQGTLVTVSS
light: DIVMTQSPSSLAMSVGQKVTMSCKSSQSLLNSSNQKNYLAWYQQKPGQSPELLVYFASTRESGVPDRFIGSGSGTDFTLTISSVQAEDLADYFCQQHYSTPFTFGSETKLEIKRGGSGGGGSGDVVMTQTPLSLPVSLGDQASISCRSSQSLVHSNGNTYLHWYLQKPGQSPKLLIYKVSNRFSGVPDRFSGSGSGTDFTLKISRVEAEDLGAYFCSQSTHVPYTFGGPTRLEIKR
Take B1: the “potency in human IgM binding assay” value with Human IgM is “highest potency”.

B2: DVD3752: DVD-Ig: VD1 DNA(PA4), SS linker, VD2 mIgM (B7.6); heavy SEQ ID NO 50, light 51 (antibody)
heavy: EVQLVESGGGLVKPGGSLKLSCVASGFTFSTYAMSWVRQTPTKRLEWVATISRGGVSTYYPDTVKGRFTISRDNAKNTLYLQMSSLRSEDTAMYYCARPPTIVTTWFAYWGQGTLVTVSSASTKGPQVQLKESGPGLVKPSLTLSLTCTVSGFSLNGYGVIWVRQPPGKGLEWMGVIWGNGNTNYNSTLKSRLSISRDTSKSQVFLKMNNLQTEDTAMYFCARSENYYSSPGYFAYWGQGTLVTVSS
light: DVVMTQTPLSLPVSLGDQASISCRSSQSLVHSNGNTYLHWYLQKPGQSPKLLIYKVSNRFSGVPDRFSGSGSGTDFTLKISRVEAEDLGAYFCSQSTHVPYTFGGPTRLEIKRTVAAPNTVMTQSPTSMFISVGDRVTMNCKASQNVGSDVDWYQQKTGQSPKLLISGTSNRYTGVPDRFTGSGSGTDFTLTISNMQAEDLAVYYCLQYNYNPTFGAGTKLELKR
With B2, the “IgM Binding EC50” value with mIgM came to 0.205 mg/L. Also, in the assay on DNA, the “level of ANA staining” value is listed as “highest level of staining”; the ANA score is listed as 4; the “ANA score, relative result” value is reported as “(XXX)”. Also, in the assay on AM14 WT B cells, the “3H incorporation AM14 WT, relative result” value is on record as “(XX)” and the “3H incorporation AM14 WT” value is given as “(12682)”. Also, the “3H incorporation AM14 TLR9−/−” value with AM14 TLR9−/− B cells is listed as “(512)”.

B3: DVD3755: DVD-Ig: VD1 DNA(PA4), LS linker, VD2 mIgM (B7.6); heavy SEQ ID NO 56, light 57 (antibody)
heavy: EVQLVESGGGLVKPGGSLKLSCVASGFTFSTYAMSWVRQTPTKRLEWVATISRGGVSTYYPDTVKGRFTISRDNAKNTLYLQMSSLRSEDTAMYYCARPPTIVTTWFAYWGQGTLVTVSSASTKGPSVFPLAPQVQLKESGPGLVKPSLTLSLTCTVSGFSLNGYGVIWVRQPPGKGLEWMGVIWGNGNTNYNSTLKSRLSISRDTSKSQVFLKMNNLQTEDTAMYFCARSENYYSSPGYFAYWGQGTLVTVSS
light: B2 light
Turning to B3, the “IgM Binding EC50” value with mIgM is 0.09709 mg/L. Also, in the assay with DNA, the “level of ANA staining” value is reported as “highest level of staining”; the ANA score amounted to 4.5; the “ANA score, relative result” value is listed as “(XXX)”. Moreover, in the assay on AM14 WT B cells, the “3H incorporation AM14 WT, relative result” value was “(X)” and the “3H incorporation AM14 WT” value is listed as “(8498)”. Also, the “3H incorporation AM14 TLR9−/−” value in the assay on AM14 TLR9−/− B cells is recorded as “(402)”.

B4: DVD3751: DVD-Ig: VD1 DNA(PA4), GS linker, VD2 mIgM (B7.6); heavy SEQ ID NO 48, light 49 (antibody)
heavy: EVQLVESGGGLVKPGGSLKLSCVASGFTFSTYAMSWVRQTPTKRLEWVATISRGGVSTYYPDTVKGRFTISRDNAKNTLYLQMSSLRSEDTAMYYCARPPTIVTTWFAYWGQGTLVTVSSGGGGSGGGGSQVQLKESGPGLVKPSLTLSLTCTVSGFSLNGYGVIWVRQPPGKGLEWMGVIWGNGNTNYNSTLKSRLSISRDTSKSQVFLKMNNLQTEDTAMYFCARSENYYSSPGYFAYWGQGTLVTVSS
light: DVVMTQTPLSLPVSLGDQASISCRSSQSLVHSNGNTYLHWYLQKPGQSPKLLIYKVSNRFSGVPDRFSGSGSGTDFTLKISRVEAEDLGAYFCSQSTHVPYTFGGPTRLEIKRGGSGGGGSGNTVMTQSPTSMFISVGDRVTMNCKASQNVGSDVDWYQQKTGQSPKLLISGTSNRYTGVPDRFTGSGSGTDFTLTISNMQAEDLAVYYCLQYNYNPTFGAGTKLELKR
For the molecule B4, in the assay with mIgM, the “IgM Binding EC50” value was 0.1909 mg/L. In addition, in the assay with DNA, the ANA score turned out to be 2 and the “ANA score, relative result” value is reported as “(X)”. In addition, in the assay with AM14 WT B cells, the “3H incorporation AM14 WT, relative result” value is recorded as “(XXX)” and the “3H incorporation AM14 WT” value was “(35554)”. In addition, the “level of 3H incorporation” value in the assay with AM14 WT B cells (among DVD3751-DVD3760) is recorded as “highest level of ^3H incorporation”. The “3H incorporation AM14 TLR9−/−” value with AM14 TLR9−/− B cells is recorded as “(1184)”.
